The values below come from US20250011363A1, “OPTIMIZED SHORTENED PEPTIDE THAT BINDS TO ACETYLCHOLINE RECEPTOR, AND USE THEREOF” (SKINMED CO., LTD., priority 2021, published 2025).

The target of the assay is acetylcholine receptor (Homo sapiens, UniProt P02708). Briefly: SPR binding affinity (RU) of optimized 5mer/6mer/7mer peptides, Examples 6-7. The following applies: SPR, peptides tested at 10 μM; 6mer-1 Bottom sequence (Table 11). An outline of the steps: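 Using surface plasmon resonance, binding to the acetylcholine receptor was measured for each sequence at a single 10 μM concentration. Values are response units.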
Background: In SPR one partner is held on a chip, and binding of the other changes the refractive index at the surface.

Sequence of acetylcholine receptor (P02708 21-457): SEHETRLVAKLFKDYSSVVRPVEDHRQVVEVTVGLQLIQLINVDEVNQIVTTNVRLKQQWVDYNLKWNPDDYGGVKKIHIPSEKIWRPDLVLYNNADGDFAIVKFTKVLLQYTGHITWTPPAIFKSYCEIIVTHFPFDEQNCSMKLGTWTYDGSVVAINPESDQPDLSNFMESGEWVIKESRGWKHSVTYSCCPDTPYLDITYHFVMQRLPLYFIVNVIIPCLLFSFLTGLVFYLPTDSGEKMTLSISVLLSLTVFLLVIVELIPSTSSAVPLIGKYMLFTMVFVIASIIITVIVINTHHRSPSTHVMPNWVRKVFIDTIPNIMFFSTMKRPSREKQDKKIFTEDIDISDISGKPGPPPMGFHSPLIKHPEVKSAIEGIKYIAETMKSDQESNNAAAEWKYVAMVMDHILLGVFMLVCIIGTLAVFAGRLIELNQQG

For the substance 6mer-1-860 (RKHWWR), the Binding affinity amounted to 22 Ru.
For 6mer-1-861 (KRINIR) the value was 21 Ru.
The result for 6mer-1-862 (KKHSEK) reads 32 Ru; that for 6mer-1-863 (RRCTER), 27 Ru; that for 6mer-1-864 (RRTWGR), 32 Ru.
For 6mer-1-865 (KKMTAR) the value was 21 Ru.
Turning to 6mer-1-866 (KRCHFR), the Binding affinity turned out to be 26 Ru.
For 6mer-1-867 (KRIPMR) the value was 25 Ru; for 6mer-1-868 (KKHHAR), 14 Ru; for 6mer-1-869 (KRKDER), 22 Ru.
Regarding 6mer-1-870 (KRMSHR), the Binding affinity is listed as 25 Ru.
The result for 6mer-1-871 (KREWDR) reads 30 Ru.
For 6mer-1-872 (KRPCHR) the value was 23 Ru; for 6mer-1-873 (KRIWAR), 23 Ru; for 6mer-1-874 (KRANHK), 18 Ru.
For 6mer-1-875 (KKTNGR), the Binding affinity is reported as 33 Ru.
Take 6mer-1-876 (RKYWAR): the Binding affinity amounted to 19 Ru.
For the substance 6mer-1-877 (KKPEWR), the Binding affinity worked out at 19 Ru.
With 6mer-1-878 (RRKDNR), the Binding affinity is listed as 27 Ru.
With 6mer-1-879 (RRYNNR), the Binding affinity is reported as 27 Ru.
6mer-1-880 (KRPMDK): the Binding affinity was 21 Ru.
For 6mer-1-881 (KKHMER) the value was 20 Ru.
Regarding 6mer-1-882 (KKPAMR), the Binding affinity came out at 25 Ru.
Take 6mer-1-883 (KKIDDK): the Binding affinity turned out to be 21 Ru.
As to 6mer-1-884 (KRYTKR), the Binding affinity worked out at 26 Ru.
The result for 6mer-1-885 (RRKTPR) reads 17 Ru; that for 6mer-1-886 (RKFSNK), 17 Ru.
On to 6mer-1-887 (KRINHR), for which the Binding affinity was 30 Ru.
On to 6mer-1-888 (KKTANK), for which the Binding affinity is on record as 33 Ru.
The result for 6mer-1-889 (KRIMEK) reads 25 Ru.
For 6mer-1-890 (RRTSNK) the value was 18 Ru; for 6mer-1-891 (RKMAFR), 13 Ru; for 6mer-1-892 (RKTEKR), 20 Ru.
As to 6mer-1-893 (RRIPHR), the Binding affinity is recorded as 22 Ru.
Consider 6mer-1-894 (RKCWWR), for which the Binding affinity stood at 18 Ru.
As for 6mer-1-895 (KKDSKK), the Binding affinity is on record as 28 Ru.
On to 6mer-1-896 (KRDWIK), for which the Binding affinity is reported as 11 Ru.
For 6mer-1-897 (RRPSIK) the value was 24 Ru; for 6mer-1-898 (RKATKR), 31 Ru.
Take 6mer-1-899 (KRMKWK): the Binding affinity is given as 31 Ru.
The result for 6mer-1-900 (RRDTGR) reads 24 Ru; that for 6mer-1-901 (RKPNGR), 35 Ru; that for 6mer-1-902 (RRDKMK), 39 Ru.
The result for 6mer-1-903 (KKHKPR) reads 37 Ru; that for 6mer-1-904 (KKDTKR), 31 Ru; that for 6mer-1-905 (RRICER), 36 Ru.
With 6mer-1-906 (KKINGK), the Binding affinity is recorded as 30 Ru.
Regarding 6mer-1-907 (RKPAWR), the Binding affinity is 42 Ru.
The result for 6mer-1-908 (KKFMVR) reads 37 Ru; that for 6mer-1-909 (RKFCMR), 33 Ru; that for 6mer-1-910 (KRPTIR), 42 Ru.
The result for 6mer-1-911 (KRCAAR) reads 28 Ru; that for 6mer-1-912 (KKETFR), 33 Ru.
For the substance 6mer-1-913 (KRFWWK), the Binding affinity is reported as 27 Ru.
